# Reference: the nanobody polyreactivity screen of Harvey et al. (2022)
# Experiment: yeast display, Sf9 membrane polyspecificity reagent, FACS + sequencing; frameworks hold sequencing errors
# Summary of the method: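 Genes from sorted yeast were amplified by colony PCR, read by MiSeq 2 × 250 sequencing and filtered on CDR length. These cells carried a synthetic nanobody library in Saccharomyces cerevisiae BJ5465 and were sorted by FACS into low and high (top ~1%) gates on anti-HA and streptavidin fluorescence. Polyreactivity is labelled according to the gate of origin.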
row,Sequence,polyreactivity (PSR sort gate)
1,QVQLVESGGGLVQAGGSLRLSCAASGFTFGRYALGWYRQAPGKERELVAAISFSGGRTYYADSVKGRFTISRDKAKNTVYLQMNSLKPEDTAVYYCAARRRQEHVGRSSYARYDYWGQGTQVTVSS,high polyreactivity
2,QVQLVESGVGLVQAGGSLRLSCAASGSIFYRYAMGWYRQAPGKEREFVARITSSGGSTNYADSVKGRFTISRDNAKNTVYLQMNSLKPEDTAVYYCAKRGWSSYGRYDSWGQGTQVTVSS,high polyreactivity
3,QVQLVESGGGLVQAGGSLRLSCAASGRTFGSYAMGWYRQAPGKERELVAAITWSGGITYFADSVKGRFTISRDNAKNTVYLKMNSLKPEDTAVYYCNVYVSAGEEDEYWGQGTQVTVSS,low polyreactivity
4,QVQLVESGGGLVQAGGSLRLSCAASGLTFKYYAMGWYRQAPGKERELVAAINRSGSSTYYADSVKGRFTISRDNAKNTVYLQMNSLKPEDTAVYYCAKDSFTSTRQYDYWGQGTQVTVSS,low polyreactivity
5,QVQLVESGGGLVQEGGSLRLSCAASGITFDNYDMGWYRQAPGKERELVAAISSDDNTTYADSVKGRFTISRDNAMNTVYFQMNSLKTDDTAVYYCAADYRIYGYLEYDYWGQGTQVTVSS,low polyreactivity
6,QVQLVESGGGLVQAGGSLRLSCAASGRIFGYNAMGWYRQAPGNERELVAAITNGGSTNYADSVKGRFTISRDNAKNTVYLQINSLKPEDTAVYYCAVKWYPPGHDYWGQGTQVTVSS,low polyreactivity
7,QVQLVESGGGLVQAGGSLRLSCAASGSIFVQYALGWYRQAPGKERELVAAISQRGGSTYYADSVKGRFTISRDNAKNTVYVQMNSLKPADTAVYYCRPYPPSYYVTFGYGYWGQGTQVTVSS,high polyreactivity
8,QVQLEESGGGLVQAGGSLRLSCAASGSIFRNNSMGWYRKAPGKERVLVAVISRRSGNTYYADSVKGRLTISRDNAKNTVYLQMNSLKAEDTAVYYCAADYSKSSIRGEYWGQGTQVTVSS,low polyreactivity
9,QVQLVESGGGLVQAGGSLRLSCAASGRTFWNYAMGWYIQAPGKEREFVAVIRFSDGSTYYADSVKGRFTISRDNAKNTVYLQMNSLKPEDTAVYYCAAKGPRRWGSGFDYWGQGTQLTVSS,low polyreactivity
10,QVQLEESGGCLVQAGGSLRLSCAASGITFYVYAMGWSRQAPGKERELVAAISSSGGSTYYADSVTGRFTISRDNAKNTGALQMNSLKPEDTAVYYCPADKCFYYGRKYGKYDYWGQGTQVTVSS,high polyreactivity
11,QFQLVESGGGFVQAGGSLRLSGASSGIIFLANAMVWYRQSPGKEREFVAAISRSGSRTYDADSVKGRFTISRDHAKNSVYLQMNSVKPEDTAVYYCAAESPVLYYWGQGTQVTVSS,high polyreactivity
12,QVQHVESGGGLVQAGGRLRLSCPATGSTFTWYALASYRQAPGKERELVAAISRGGSTNYADSVKGRFTISRDNAKNSVYLQMNSLIPEDTAVYYCAAESYWRDVYWGQGTQVTVSS,low polyreactivity
13,QVQLVESGGGLVQAGGSLRLSCAASGRIFFRNVMGWYRQAPGKERELVATITSGGRTYYADSVKGRFTISRDNAKNTVYLQMNSLKPEDTAVYYCAAKRYLHRREYWGQGTQVTVSS,high polyreactivity
14,QVQLVESGGGLVQAGGSLRLSCAASGRIFYHNVMGWYRQAPGKERELVAGIRSRGGSTSYADSVKGRFTISRDNAKNTVYLQMNSLKPEDTAVYYCATDTTLWYVLYDYWGQGTQVTVSS,low polyreactivity
15,QVQLVESGGGLVQAGGSLRLSCAAYGIIFYYYAMGWYRQAPGKERELVAAITGTGSRTYYADSVKGRFTISRDNAKNTVYLQMNSLKPEDTAVYYCNARSFATGSEVPARGYWGQGTQVTVSS,high polyreactivity
16,QVQLVESGGGLVQAGGSLRLSCAASGSTFWWYAMGWYRQAPGKEREFVAAINWRGSSTYYADSVKGRFTISRDNAKNTVYLQMNSLKPEDTSVYYCNAVLRYGYAGMDYWGQGTQVTVSS,high polyreactivity
17,QVQLVESGGGLVQAGGSLRLSCAASGRIFFTKAMGWYRQAPGKERELVAAISKSGARTYYADSVKGRFTISRDNAKNTVYLQMNSLKPEDTAVYYCAADVSVSGYYYWGQGTQVTVSS,high polyreactivity
18,QVQLGESGGGLVQAGGSLRLSCAASGFIFPGYAMGLYRQAPGKERELVAAITGSGGSTYYADSVKGRFTISRDNAKYTVYVQMNSVKTEDTAVDYCGAYVSGYLWGYDYWGHGTQVTVSS,high polyreactivity
19,QVQLVESGGGLVQAGGSLRLSCAASGRIFGRNAMGWYRQAPGKERELVAAISKSGTSTYYADSVKGRFTISRDNAKNTVYLQMNSLKPEDTAVYYCAAALPGYGDYYYWGQGTQVTVSS,high polyreactivity
20,QVQLVESGRGLVQAGGSLRLSCAASGIIFTYNAMGWYRQAPGKERELVAAISAGGGSTYYADSVKGRFTISRDNAKNTVYLQMNSLKPEDTAVYYCAAARRYATQFHYDSWGQGTQVTVSS,high polyreactivity
21,QVQLVESGGGLVQAGGSLRLSCAASGYIFLANAMGWYRQAPGKERELVARIDTRGDSTYYADSVKGRFTISRDTAKNTVYLQMNSLKPEDTAVYYCAADQQTWWQYSLINEYDYWGQGTQLTVSS,low polyreactivity
22,QVQLVESGGVLVQAGGSLRLSCAASGRTFRYYGMGWYRQAPGKERVVAAITWSGDTTYYADSVKGRFTISRDNAKNTVYLQMNSLKPEDTAVYYCAAQSWHRYYYWGQGTQVTVSS,high polyreactivity

row,Sequence,polyreactivity (PSR sort gate)
1,QVQLVESGGGLVQAGGSLRLSCAASGSTLGYYAMGWYRQAPGKERELVAAIRYSDGNTYYADSVKGRFTISRDNAKNTVYLQMNSLKPEDTAVYYCAADGGYYGREYWGQGTQVTVSS,high polyreactivity
2,QVQLVESCGGLVQAGGRLRLSCAASGRNFQQYAMGWSRQAPGKERELVAAISRGGSTYYADSVKGRFTISRDNAKNTVYLQMNRLKPEDTAVYYCAARWWRRFSGSHSLYDYWGQGTQVTVSS,high polyreactivity
3,QVQLVESGGGLVQAGGSLRLSFAASGITFSSYAMGLYRQAPGKERELVARISTDADTYYADSVKGRFTISRDNAKNTVYLQMNSLKPEDTAVYYCAAEDYWDFDYWGQGTQVTVSS,low polyreactivity
4,QVQLVESGGGLVQAGGSLRLSCAASGRIFVDNTMGWYRQAPGKERELVAAISRRGTSTYYADSVKGRFTISRDTAKNTVFLQMNSLNPEDTAVYYCAADYYYYDSQQGMDYWGQGTQVTVSS,high polyreactivity
5,QVQLVESGGGLVQAGGSLRLSCAASGSTFGFNVMGWYRPAPGKERELVAAIRYRDGSTYYADSVKGRFTISRDNAKNTVYLQMNSLKPEDTAVYYCNTRITQVGDYIYDYWGQGTQVTVSS,low polyreactivity
6,QVQLVESGGGLVQAGGRLRLICAASGSTLYSYAMGWYRQAPGKEREFVAAISRRGGSTYYADSVKGRFTISRDNAKNTVYLQMNSLKPEDTAVYYCAARDSSYHWYGYWGQGTQVTVSS,high polyreactivity
7,QVQLVESGGGLVQAGGSIRLSCAASGFIIKVYAMGWYRQAPGKERELVAAITWSGGSTYYADSVKGRFTISRDNAKNNVYLQMNSLKPEDTAVYYCNTDAYRYPEYDYWGQGTQVTVSS,low polyreactivity
8,QVQLVESGGGLVQAGGSLRLSCAASGRTYRYYAMGWYRQAPGKERELVAAITASTGRTYYADSVKGRFTISRDNAKNSVYLQMNRLKPEDTAVYYCDARQSSYRYPGSYEYWGQGTQVTVSS,high polyreactivity
9,QVQLVESGGGLVQAGGSLRLSCAASGRIFTRYAMGWYRPSPGKERELVAAISRNGGGTYYAESVKGRFTISRDNAKNTVYLQMNSLKPEDTAVYYCNAESTFVWGSYVRYDYWGQGTQVTVSS,low polyreactivity
10,QVQLVESGGGLVQAGGSLRLSCAASGFTFTPYAMGWYRQAPGKERELVAAISWSDVRTYYADSVKGRFTISRDNAKNTVFLQMNSLKPEDTAVYYCAAEFYFYSWSEYDYWGQGTQVTVSS,high polyreactivity
11,QVQLVESGGGLVQAGGSLRLSCAASGSIFSYYAMGWYRQAPGKERELVAAISQSGGTTYYADSVKGRFTISRDNAKNTDYLQMKSLKPEDTAVYYCAARAPSSFDTQYYYWGQGTQVTVSS,low polyreactivity
12,QVQLVESGGGVVQAGGSLRLSCAASGSTFYINTMGWSRPAPGKDRELVAAISWTGGRTYYAASVKGRFTISRANAKNTVYLQMNSLKPEDTAVYYCAAYYNIPDRRRVGYDYWGQGTQVTVSS,high polyreactivity
13,QVQLVESGGGLVQAGGSLRLSCAASGIILTQNAMGWYRQEPGKVRELVAAITESGARTYYADSVMGRFTISRDTAQNTVYLQMNSLKPEATAVYYCATEGPWGYDYWGIGTQVTVSS,low polyreactivity
14,QVQLVESGGGLVQAGGSLRLSCAASGSTFRYYAMGWYRQAPGKERELVAAITQSGGITYYADSVKGRFTISRDNAKNTVYLQMNSLKPEDTAVYYCAKRYYVDYDYWGQGTHVTVSS,low polyreactivity
15,QVQLVESGGGLVQAGGSLRLSCAASGFTFVEYAMGWYRQATGKERELVAAITSGGSTYYADSVKGRFTISRDNAKNTVYLQMNSLKPADTAVYYCNAEGVVVAISHFSVQDGYWGQGTQVTVSS,low polyreactivity
16,QVQLVESGGGLVQAGGSLRLSCAASGSIFTGYAMGWYRQAPGKDRELVAGISWGGTSTYYADSVKGRFTISRDTAKNTVYLQMNSLKPEDTAVYYCSAVRGKYGYLTTPYWFDYWGQGTQVTVSS,high polyreactivity
17,QVQLVESRGGLVQAGGSLRLSCAASVSIVGIYVMGRYRQAPGKERELVAGISTRGGSTYYADSVKGRFTIARDNAKNTVYLQMNSLKPEDTAVYYCAVRAWDPYTGKSDYWGQGTQVTVSS,low polyreactivity
18,QDQLVESAGGLVQAGGSLRLSCAASGSISYNNVMGWYRQAPGKERELVARIRSGGSTYYADSVKGRFTISRDNAKNTVYLQMNSLKPEDTAVYYCAARTKRQAGSYGYWGQGTQVTVSS,high polyreactivity
19,QVQLVESGGGLVQAGGSLRISCASSGSIFYLNAMGWYRQAPGKERELVAAISRRGGTTSYADSVKGRFTISRDNAKNTVFLQMNSLKPEDTAVYYCAKRTKPSKNYYYWGQGTQVTVSS,high polyreactivity
20,QVQLVESGGGLVQAGGSLRISCAASRSTFGIYAMGWYRQAPGKERELVAAISFRCGRTYYADSVKGRFTISRDNAKNTVYLQMISLKPEDNAVYYCAATWYWGNAYWGQGTQVTVSS,low polyreactivity
21,QVQLVESGGGLVQAGGSLRLSCAASGSIFAYYTMGWYRQAPGNERELVATISSGDITNYADSVKGRFTISRDNAKNTVYLQMNSLKPEDTAVYYCAAAELTSYYRTFIHQDYDYWGQGTQVTVSS,low polyreactivity
